Assay results from paper PMC7382286 (2020).

T1: biotinylated recombinant human Arginase 2 (human, UniProt P78540 23-354, biotin (biotinylated; site not stated))
T1 chain: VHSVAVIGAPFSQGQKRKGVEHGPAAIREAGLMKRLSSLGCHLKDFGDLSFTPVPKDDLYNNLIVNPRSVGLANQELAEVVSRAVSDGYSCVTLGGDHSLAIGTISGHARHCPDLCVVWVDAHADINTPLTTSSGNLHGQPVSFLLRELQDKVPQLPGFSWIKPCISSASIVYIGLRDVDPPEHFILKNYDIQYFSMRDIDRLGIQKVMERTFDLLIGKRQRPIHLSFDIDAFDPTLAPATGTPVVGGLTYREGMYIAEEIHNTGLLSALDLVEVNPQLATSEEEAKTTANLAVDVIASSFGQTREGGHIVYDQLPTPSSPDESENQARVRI


Experiments:
[1] = biological target: T1, biotinylated recombinant human Arginase …; experiment: BLI
[2] = biological target: T1, biotinylated recombinant human Arginase …; experiment: BLI

Row | Kd [1] | koff [2] | Binder
1 | 0.17 nM | 3.5e-05 s⁻¹ | Fab C0021177 (Fab, V domains shown) VH: EVQLLESGGGLVQPGGSLRLSCAASGFTFRYEVAAWVRQAPGKGLEWVSAISGPAPKGYYADSVKGRFTISRDNSKNTLYLQMNSLRAEDTAVYYCARLRADLGLYMDLWGRGTLVTVSS VL: QSELTQPPTASAAPGQKVTISCSGSSSNIGNHYVSWYQQLPGTAPKLLIYDTTVLSSGIPDRFSGSKSGTSATLGITGLQTGDEADYYCGTWDELTSNLVFGGGTKLTVL
2 | 0.17 nM | 4.5e-05 s⁻¹ | Fab C0021158 (Fab, V domains shown) VH: EVQLLESGGGLVQPGGSLRLSCAASGFTFRYEVAAWVRQAPGKGLEWVSAISGPIPKGYYADSVKGRFTISRDNSKNTLYLQMNSLRAEDTAVYYCARLRADLGLYMDLWGRGTLVTVSS VL: QSVLTQPPSVSAAPGQKVTISCSGSSSNIGNHYVSWYQQLPGTAPKLLIYDNSERTAGVPDRFSGSKSGTSATLGITGLQTGDEADYYCGTWDELTSNLVFGGGTKLTVL
3 | 0.29 nM | 4.2e-05 s⁻¹ | Fab C0021181 (Fab, V domains shown) VH: EVQLLESGGGLVRPGGSLRLSCAASEFTFRYDYHVWVRQAPGKGLEWVSAISGSGGSTYYADSVKSRFTISRDNSKNTLYLQMNSLRAEDTAVYYCARLRADLGLYMDLWGRGTLVTVSS VL: QSVLTQPPSVSAAPGQKVAVSCSGSSSNIGSHYVSWYQQLPGTAPKLLIYDNSERTSGIPDRFSGSKSGTSATLGITGLQTGDEADYYCGTWDELTSNLVFGGGTRLTVL

More lines, now with the values behind:

Row | Binder | Kd [1] | koff [2]
4 | Fab C0021133 (Fab, V domains shown) VH: EVQLLESGGGLVQPGGSLRLSCAASGFTFRYDHHVWVRQAPGKGLEWVSAISGSGGSTYYADSVKGRFTISRDNSKNTLYLQMNSLRAEDTAVYYCARLRADLGLYMDLWGRGTLVTVSS VL: QSVLTQPPSVSAAPGQKVTVSCSGSSSNIGNHYVSWYQQLPGTAPKLLIYDTTVLSSGIPDRFSGSKSGTSATLGITGLQTGDEADYYCGTWDELTSNLVFGGGTKLTVL | 2.1 nM | 0.00045 s⁻¹
5 | Fab C0021128 (Fab, V domains shown) VH: EVQLLESGGGLVQPGGSLRLSCAASGFTFQYEVAAWVRQAPGKGLEWVSAISGPIPKGYYADSVKGRFTISRDNSKNTLYLQMNSLRAEDTAVYYCARLRADLGLYMDLWGRGTLVTVSS VL: QSVLTQPPSVSAAPGQKVTISCSGSSSNIGNHYVSWYQQLPGTAPKLLIYDNAIESSGIPDRFSGSKSGTSATLGITGLQTGDGADYYCGTWDSNLSALVFGGGTKLTVL | 2.5 nM | 0.00067 s⁻¹
6 | Fab C0021139 (Fab, V domains shown) VH: EVQLLESGGGLVQPGGSLRLSCAASGFTFQYDYQVWVRQAPGKGLEWVSAISGSGGSTYYADSVKGRFTISRDNSKNTLYLQMNSLRAEDTAVYYCARLRADLGLYMDLWGRGTLVTVSS VL: QSVLTQPPSVSAAPGQKVTISCSGSSSNIGNHYVSWYQQLPGTAPKLLIYDNSERTSGIPDRFSGSKSGTSATLGITGLQTGDEADYYCGTWDELTSNLVFGGGTKLTVL | 4.4 nM | 0.00087 s⁻¹
